Reference: patent US20020001857A1
Values belong to the substance of their own block, whether it stands above or below them.

Legend:
PHF-tau (human) [1] = target: PHF-tau (human) (UniProt P10636); experiment: competition ELISA on captured PHF-tau; biotinylated BT2, unlabeled competitor BT2 at 10 ug/ml
PHF-tau (human) [2] = target: PHF-tau (human) (UniProt P10636); experiment: competition ELISA on captured PHF-tau; biotinylated BT2, unlabeled competitor AT120 at 10 ug/ml
PHF-tau (human) [3] = target: PHF-tau (human) (UniProt P10636); experiment: sandwich ELISA, AT120 coated, no tau added (background), detection with biotinylated BT2 and HT7
[4] = target: affinity-purified human normal tau (human) (UniProt P10636); experiment: as above
PHF-tau (human) [5] = target: PHF-tau (human) (UniProt P10636); experiment: competition ELISA on captured PHF-tau; biotinylated AT120, unlabeled competitor AT8 at 10 ug/ml
PHF-tau (human) [6] = target: PHF-tau (human) (UniProt P10636); experiment: sandwich ELISA, AT120 coated, tau spiked in tau-negative CSF, detection with biotinylated BT2 and HT7
[7] = target: affinity-purified human normal tau (human) (UniProt P10636); experiment: as above
PHF-tau (human) [8] = target: PHF-tau (human) (UniProt P10636); experiment: competition ELISA on captured PHF-tau; biotinylated AT120, unlabeled competitor AT120 at 10 ug/ml
PHF-tau (human) [9] = target: PHF-tau (human) (UniProt P10636); experiment: competition ELISA on captured PHF-tau; biotinylated AT8, unlabeled competitor AT8 at 10 ug/ml
PHF-tau (human) [10] = target: PHF-tau (human) (UniProt P10636); experiment: competition ELISA on captured PHF-tau; biotinylated AT8, unlabeled competitor AT120 at 10 ug/ml

- absorbance (PHF-tau (human) [1]): 0.054 absorbance
- absorbance (PHF-tau (human) [2]): 0.543 absorbance
Substance: monoclonal antibody BT2

- absorbance at 0 pg/ml (blank) (milliabsorbance units) (PHF-tau (human) [3]): 92
- absorbance at 0 pg/ml (blank) (milliabsorbance units) [4]: 87
- absorbance (PHF-tau (human) [5]): 0.476 absorbance
- absorbance at 10 pg/ml (milliabsorbance units) (PHF-tau (human) [6]): 143
- absorbance at 20 pg/ml (milliabsorbance units) (PHF-tau (human) [6]): 257
- absorbance at 40 pg/ml (milliabsorbance units) (PHF-tau (human) [6]): 566
- absorbance at 80 pg/ml (milliabsorbance units) (PHF-tau (human) [6]): 901
- absorbance at 160 pg/ml (milliabsorbance units) (PHF-tau (human) [6]): 1680
- absorbance at 10 pg/ml (milliabsorbance units) [7]: 154
- absorbance at 20 pg/ml (milliabsorbance units) [7]: 256
- absorbance at 40 pg/ml (milliabsorbance units) [7]: 678
- absorbance at 80 pg/ml (milliabsorbance units) [7]: 970
- absorbance at 160 pg/ml (milliabsorbance units) [7]: 1610
- absorbance (PHF-tau (human) [8]): 0.001 absorbance
Substance: monoclonal antibody AT120

- absorbance (PHF-tau (human) [9]): 0.001 absorbance
- absorbance (PHF-tau (human) [10]): 0.372 absorbance
Substance: monoclonal antibody AT8
